This note sets out measurements from PMC12204359, “Mechanistic Design of Cell-Penetrating Disruptors for a Phospho-Dependent Interaction” (Research Square, 2025).

Positions of bridges follow the written chain, without caps; N, C: chain ends. Non-standard residues stand in square brackets, D forms with d. Primed or numbered codes have the meaning given here. No end group written: not given here. FAM″ = 5(6)-carboxyfluorescein label; pS = N[C@@H](COP(=O)(O)O)C(=O)O; FAM = 5(6)-carboxyfluorescein; S5 = C=CCCC[C@](C)(N)C(=O)O

The chains are these.
T1: clathrin heavy chain minimal ankle region (CHC^ankle, aa 358–574) (human, UniProt Q00610 358-574)
T1 construct: modified pGEX vector with a TEV-cleavable GST tag; also called CHC ankle region protein; WT CHC
T1 sequence (looked up): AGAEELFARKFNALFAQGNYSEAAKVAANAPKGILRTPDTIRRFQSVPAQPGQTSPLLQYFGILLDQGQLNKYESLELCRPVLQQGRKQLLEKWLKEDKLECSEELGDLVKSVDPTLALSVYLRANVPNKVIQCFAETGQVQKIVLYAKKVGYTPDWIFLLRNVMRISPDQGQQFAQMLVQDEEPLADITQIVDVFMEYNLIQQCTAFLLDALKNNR

T2: biotinylated Avi-tagged ankle region of clathrin (aa 358–574) (human, UniProt Q00610 358-574, biotin)
T2 construct: held on a streptavidin chip (SPR) or detected with an anti-biotin antibody (peptide arrays)
T2 sequence (looked up): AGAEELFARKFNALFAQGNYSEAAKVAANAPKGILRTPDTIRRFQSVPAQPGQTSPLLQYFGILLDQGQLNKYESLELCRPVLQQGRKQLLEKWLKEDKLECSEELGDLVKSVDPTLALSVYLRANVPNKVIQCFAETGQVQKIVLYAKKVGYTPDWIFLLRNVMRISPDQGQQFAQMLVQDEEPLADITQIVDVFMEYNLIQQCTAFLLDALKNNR

B1: GB1-pTACC3 (domain or fragment, human, UniProt Q9Y6A5 545-573, looked up)
chain: GTSSFKESALRKQ[pS]LYLKFDPLLRDSPGR
modifications: also: 15N/13C labelled
notes: human TACC3 aa 545-573 (the results say aa 546-573), pS558, fused to the small protein GB1; also called phosphorylated GB1-TACC3 CID; source: E. coli BL21 (DE3) RIL, purified; phosphorylated in situ with Aurora-A (122–403) and TPX2 (1–43); not shown: His-NusA, N-terminal, cleaved
B2: negative control SP TACC3 (F563A & L566A) (peptide)
chain: {FAM″}-KESALRK[S5]ELL[S5]EADPAFRDS-NH2
modifications: staple 8-12
B3: FAM-TACC3 CID K562A peptide, unphosphorylated (peptide, UniProt Q9Y6A5 549-570, looked up)
peptide: {FAM}-FKESALRKQSLYLAFDPLLRDS
notes: human TACC3 CID, aa 549-570, K562A, no phosphate; also called K562A^TACC3; source: synthetic peptide, bought: PPR, Alta Bioscience or Biomatik Corporation
B4: FAM-pTACC3 CID R555A K562A peptide (peptide, UniProt Q9Y6A5 549-570, looked up)
peptide: {FAM}-FKESALAKQ[pS]LYLAFDPLLRDS
notes: human TACC3 CID, aa 549-570, pS558, R555A and K562A; also called R555A K562A^pTACC3; source: synthetic peptide, bought: PPR, Alta Bioscience or Biomatik Corporation
B5: FAM-pTACC3 CID R555A peptide (peptide, UniProt Q9Y6A5 549-570, looked up)
peptide: {FAM}-FKESALAKQ[pS]LYLKFDPLLRDS
notes: human TACC3 CID, aa 549-570, pS558, R555A; also called R555A^pTACC3; source: synthetic peptide, bought: PPR, Alta Bioscience or Biomatik Corporation
B6: FAM-TACC3 CID S558E peptide (peptide, UniProt Q9Y6A5 549-570, looked up)
peptide: {FAM}-FKESALRKQELYLKFDPLLRDS
notes: human TACC3 CID, aa 549-570, S558E; also called phosphomimetic glutamic acid variant; S558E TACC3^CID; source: synthetic peptide, bought: PPR, Alta Bioscience or Biomatik Corporation
B7: FAM-pTACC3 CID K562A peptide (peptide, UniProt Q9Y6A5 549-570, looked up)
peptide: {FAM}-FKESALRKQ[pS]LYLAFDPLLRDS
notes: human TACC3 CID, aa 549-570, pS558, K562A; also called K562A^pTACC3; source: synthetic peptide, bought: PPR, Alta Bioscience or Biomatik Corporation
B8: array peptide TACC3 550–568 S558D Y560I K562L (peptide, UniProt Q9Y6A5 550-568, looked up)
peptide: KESALRKQDLILLFDPLLR
modifications: also: 8-amino-3,6-dioxaoctanoic acid spacer to cellulose membrane, end not given here
notes: human TACC3 aa 550-568 with S558D, Y560I, K562L; source: synthesised on cellulose membrane (MultiPep 2)
B9: array peptide TACC3 550–568 S558D Y560L K562L L567F (peptide, UniProt Q9Y6A5 550-568, looked up)
peptide: KESALRKQDLLLLFDPLFR
modifications: also: 8-amino-3,6-dioxaoctanoic acid spacer to cellulose membrane, end not given here
notes: human TACC3 aa 550-568 with S558D, Y560L, K562L, L567F; source: synthesised on cellulose membrane (MultiPep 2)
B10: array peptide TACC3 550–568 S558D Y560L K562E L567F (peptide, UniProt Q9Y6A5 550-568, looked up)
peptide: KESALRKQDLLLEFDPLFR
modifications: also: 8-amino-3,6-dioxaoctanoic acid spacer to cellulose membrane, end not given here
notes: human TACC3 aa 550-568 with S558D, Y560L, K562E, L567F; source: synthesised on cellulose membrane (MultiPep 2)
B11: array peptide TACC3 550–568 S558D Y560I K562L L567F (peptide, UniProt Q9Y6A5 550-568, looked up)
peptide: KESALRKQDLILLFDPLFR
modifications: also: 8-amino-3,6-dioxaoctanoic acid spacer to cellulose membrane, end not given here
notes: human TACC3 aa 550-568 with S558D, Y560I, K562L, L567F; source: synthesised on cellulose membrane (MultiPep 2)
B12: array peptide TACC3 550–568 S558D Y560L K562Q (peptide, UniProt Q9Y6A5 550-568, looked up)
peptide: KESALRKQDLLLQFDPLLR
modifications: also: 8-amino-3,6-dioxaoctanoic acid spacer to cellulose membrane, end not given here
notes: human TACC3 aa 550-568 with S558D, Y560L, K562Q; source: synthesised on cellulose membrane (MultiPep 2)
B13: array peptide TACC3 550–568 S558D Y560L K562I (peptide, UniProt Q9Y6A5 550-568, looked up)
peptide: KESALRKQDLLLIFDPLLR
modifications: also: 8-amino-3,6-dioxaoctanoic acid spacer to cellulose membrane, end not given here
notes: human TACC3 aa 550-568 with S558D, Y560L, K562I; source: synthesised on cellulose membrane (MultiPep 2)
B14: array peptide TACC3 550–568 S558D Y560W K562L (peptide, UniProt Q9Y6A5 550-568, looked up)
peptide: KESALRKQDLWLLFDPLLR
modifications: also: 8-amino-3,6-dioxaoctanoic acid spacer to cellulose membrane, end not given here
notes: human TACC3 aa 550-568 with S558D, Y560W, K562L; source: synthesised on cellulose membrane (MultiPep 2)
B15: array peptide TACC3 550–568 S558D Y560L K562E (peptide, UniProt Q9Y6A5 550-568, looked up)
peptide: KESALRKQDLLLEFDPLLR
modifications: also: 8-amino-3,6-dioxaoctanoic acid spacer to cellulose membrane, end not given here
notes: human TACC3 aa 550-568 with S558D, Y560L, K562E; source: synthesised on cellulose membrane (MultiPep 2)
B16: array peptide TACC3 550–568 S558D Y560W K562L L567F (peptide, UniProt Q9Y6A5 550-568, looked up)
peptide: KESALRKQDLWLLFDPLFR
modifications: also: 8-amino-3,6-dioxaoctanoic acid spacer to cellulose membrane, end not given here
notes: human TACC3 aa 550-568 with S558D, Y560W, K562L, L567F; source: synthesised on cellulose membrane (MultiPep 2)
B17: array peptide TACC3 550–568 S558D Y560L K562L (peptide, UniProt Q9Y6A5 550-568, looked up)
peptide: KESALRKQDLLLLFDPLLR
modifications: also: 8-amino-3,6-dioxaoctanoic acid spacer to cellulose membrane, end not given here
notes: human TACC3 aa 550-568 with S558D, Y560L, K562L; source: synthesised on cellulose membrane (MultiPep 2)
B18: array peptide TACC3 550–568 S558D Y560L K562I L567F (peptide, UniProt Q9Y6A5 550-568, looked up)
peptide: KESALRKQDLLLIFDPLFR
modifications: also: 8-amino-3,6-dioxaoctanoic acid spacer to cellulose membrane, end not given here
notes: human TACC3 aa 550-568 with S558D, Y560L, K562I, L567F; source: synthesised on cellulose membrane (MultiPep 2)
B19: array peptide TACC3 550–568 S558D Y560L K562Q L567F (peptide, UniProt Q9Y6A5 550-568, looked up)
peptide: KESALRKQDLLLQFDPLFR
modifications: also: 8-amino-3,6-dioxaoctanoic acid spacer to cellulose membrane, end not given here
notes: human TACC3 aa 550-568 with S558D, Y560L, K562Q, L567F; source: synthesised on cellulose membrane (MultiPep 2)

One assay has as its target T1, clathrin heavy chain minimal ankle …. As to the kind of experiment: NMR titration; CHC titrated into ~140 μM 15N-labelled GB1-TACC3 or GB1-pTACC3 to a 1:5 CHC:TACC3 molar ratio; loss of 1H–15N HSQC peak intensity. Particulars: both partners purified.
With B1, the binding result was “binds”.

A further assay has the same target. The assay is described as follows: fluorescence polarisation; direct binding, FAM-labelled TACC3 peptides and CHC protein; 20 mM HEPES pH 7.5, 150 mM NaCl, 5 mM DTT, 0.05% Tween-20; triplicate; one-site specific binding model. Particulars: both partners purified. For orientation: In fluorescence polarisation assays a small probe gives low polarisation when free and higher when bound to something large.
B2 displayed a Kd of about 750 µM.

In turn, B3 came in with a Kd of 146 µM.

In the case of B4, the Kd was 26 µM. On the same count and under the same terms, the figure for B5 is 52 µM; for B6 it is 314 µM; for B7 it is 23 µM.

Another assay concerns the target T2, biotinylated Avi-tagged ankle region of …. The assay is described as follows: peptide or protein array; peptides synthesised on cellulose membrane; 1 μM biotinylated clathrin 358–574 in 20 mM HEPES pH 7.5, 150 mM NaCl, 5 mM DTT, 0.05% Tween-20, 1 h room temperature; anti-biotin HRP. The settings on record: both partners purified.
As for B8, the binding result is “binds”. The same measure, in the same setting: under B9 stands “binds”; under B10, “binds”; under B11, “binds”. As to B12, the binding result is given as “binds”. For B13, the binding result was “binds”. B14: the binding result is listed as “binds”.

As for B15, the binding result is “binds”.

With B16, the binding result is “binds”.

Consider B17, for which the binding result is “binds”. Same read-out and setting: the entry for B18 is “binds”; for B19 it is “binds”.

Usually Kd stands for the free concentration of one partner at which half of the binding sites on the other are occupied at equilibrium, for simple one-to-one binding. A high value points to lower affinity.
